Reference: patent US20210388087A1 (Chugai, published 2021)

B1: CE115HA000/GLS3000 G89D (antibody, IgG1, name in Kabat numbering, V domains shown)
VH: QVQLVESGGGVVQPGRSLRLSCAASGFTFSNAWMHWVRQAPGKGLEWVAQIKAKSNNYATYYAESVKGRFTISRDDSKNSLYLQMNSLKTEDTAVYYCRYVHYGAYYGVDAWGQGTTVTVSS
VL: DIVMTQSPLSLPVTPGEPASISCRSSQSLVHSNRNTYLHWYQQKPGQAPRLLIYKVSNRFSGVPDRFSGSGSGTDFTLKISRVEAEDVGVYYCDQGTQVPYTFGQGTKLEIK
notes: one-arm IgG1
B2: CE115HA000/GLS3000 G89E (antibody, IgG1, name in Kabat numbering, V domains shown)
VH: QVQLVESGGGVVQPGRSLRLSCAASGFTFSNAWMHWVRQAPGKGLEWVAQIKAKSNNYATYYAESVKGRFTISRDDSKNSLYLQMNSLKTEDTAVYYCRYVHYGAYYGVDAWGQGTTVTVSS
VL: DIVMTQSPLSLPVTPGEPASISCRSSQSLVHSNRNTYLHWYQQKPGQAPRLLIYKVSNRFSGVPDRFSGSGSGTDFTLKISRVEAEDVGVYYCEQGTQVPYTFGQGTKLEIK
notes: one-arm IgG1
B3: CE115HA000/GLS3000 G89F (antibody, IgG1, name in Kabat numbering, V domains shown)
VH: QVQLVESGGGVVQPGRSLRLSCAASGFTFSNAWMHWVRQAPGKGLEWVAQIKAKSNNYATYYAESVKGRFTISRDDSKNSLYLQMNSLKTEDTAVYYCRYVHYGAYYGVDAWGQGTTVTVSS
VL: DIVMTQSPLSLPVTPGEPASISCRSSQSLVHSNRNTYLHWYQQKPGQAPRLLIYKVSNRFSGVPDRFSGSGSGTDFTLKISRVEAEDVGVYYCFQGTQVPYTFGQGTKLEIK
notes: one-arm IgG1
B4: CE115HA000/GLS3000 G89H (antibody, IgG1, name in Kabat numbering, V domains shown)
VH: QVQLVESGGGVVQPGRSLRLSCAASGFTFSNAWMHWVRQAPGKGLEWVAQIKAKSNNYATYYAESVKGRFTISRDDSKNSLYLQMNSLKTEDTAVYYCRYVHYGAYYGVDAWGQGTTVTVSS
VL: DIVMTQSPLSLPVTPGEPASISCRSSQSLVHSNRNTYLHWYQQKPGQAPRLLIYKVSNRFSGVPDRFSGSGSGTDFTLKISRVEAEDVGVYYCHQGTQVPYTFGQGTKLEIK
notes: one-arm IgG1
B5: CE115HA000/GLS3000 G89I (antibody, IgG1, name in Kabat numbering, V domains shown)
VH: QVQLVESGGGVVQPGRSLRLSCAASGFTFSNAWMHWVRQAPGKGLEWVAQIKAKSNNYATYYAESVKGRFTISRDDSKNSLYLQMNSLKTEDTAVYYCRYVHYGAYYGVDAWGQGTTVTVSS
VL: DIVMTQSPLSLPVTPGEPASISCRSSQSLVHSNRNTYLHWYQQKPGQAPRLLIYKVSNRFSGVPDRFSGSGSGTDFTLKISRVEAEDVGVYYCIQGTQVPYTFGQGTKLEIK
notes: one-arm IgG1
B6: CE115HA000/GLS3000 G89K (antibody, IgG1, name in Kabat numbering, V domains shown)
VH: QVQLVESGGGVVQPGRSLRLSCAASGFTFSNAWMHWVRQAPGKGLEWVAQIKAKSNNYATYYAESVKGRFTISRDDSKNSLYLQMNSLKTEDTAVYYCRYVHYGAYYGVDAWGQGTTVTVSS
VL: DIVMTQSPLSLPVTPGEPASISCRSSQSLVHSNRNTYLHWYQQKPGQAPRLLIYKVSNRFSGVPDRFSGSGSGTDFTLKISRVEAEDVGVYYCKQGTQVPYTFGQGTKLEIK
notes: one-arm IgG1
B7: CE115HA000/GLS3000 G89L (antibody, IgG1, name in Kabat numbering, V domains shown)
VH: QVQLVESGGGVVQPGRSLRLSCAASGFTFSNAWMHWVRQAPGKGLEWVAQIKAKSNNYATYYAESVKGRFTISRDDSKNSLYLQMNSLKTEDTAVYYCRYVHYGAYYGVDAWGQGTTVTVSS
VL: DIVMTQSPLSLPVTPGEPASISCRSSQSLVHSNRNTYLHWYQQKPGQAPRLLIYKVSNRFSGVPDRFSGSGSGTDFTLKISRVEAEDVGVYYCLQGTQVPYTFGQGTKLEIK
notes: one-arm IgG1
B8: CE115HA000/GLS3000 G89M (antibody, IgG1, name in Kabat numbering, V domains shown)
VH: QVQLVESGGGVVQPGRSLRLSCAASGFTFSNAWMHWVRQAPGKGLEWVAQIKAKSNNYATYYAESVKGRFTISRDDSKNSLYLQMNSLKTEDTAVYYCRYVHYGAYYGVDAWGQGTTVTVSS
VL: DIVMTQSPLSLPVTPGEPASISCRSSQSLVHSNRNTYLHWYQQKPGQAPRLLIYKVSNRFSGVPDRFSGSGSGTDFTLKISRVEAEDVGVYYCMQGTQVPYTFGQGTKLEIK
notes: one-arm IgG1
B9: CE115HA000/GLS3000 G89N (antibody, IgG1, name in Kabat numbering, V domains shown)
VH: QVQLVESGGGVVQPGRSLRLSCAASGFTFSNAWMHWVRQAPGKGLEWVAQIKAKSNNYATYYAESVKGRFTISRDDSKNSLYLQMNSLKTEDTAVYYCRYVHYGAYYGVDAWGQGTTVTVSS
VL: DIVMTQSPLSLPVTPGEPASISCRSSQSLVHSNRNTYLHWYQQKPGQAPRLLIYKVSNRFSGVPDRFSGSGSGTDFTLKISRVEAEDVGVYYCNQGTQVPYTFGQGTKLEIK
notes: one-arm IgG1
B10: CE115HA000/GLS3000 G89P (antibody, IgG1, name in Kabat numbering, V domains shown)
VH: QVQLVESGGGVVQPGRSLRLSCAASGFTFSNAWMHWVRQAPGKGLEWVAQIKAKSNNYATYYAESVKGRFTISRDDSKNSLYLQMNSLKTEDTAVYYCRYVHYGAYYGVDAWGQGTTVTVSS
VL: DIVMTQSPLSLPVTPGEPASISCRSSQSLVHSNRNTYLHWYQQKPGQAPRLLIYKVSNRFSGVPDRFSGSGSGTDFTLKISRVEAEDVGVYYCPQGTQVPYTFGQGTKLEIK
notes: one-arm IgG1
B11: CE115HA000/GLS3000 G89Q (antibody, IgG1, name in Kabat numbering, V domains shown)
VH: QVQLVESGGGVVQPGRSLRLSCAASGFTFSNAWMHWVRQAPGKGLEWVAQIKAKSNNYATYYAESVKGRFTISRDDSKNSLYLQMNSLKTEDTAVYYCRYVHYGAYYGVDAWGQGTTVTVSS
VL: DIVMTQSPLSLPVTPGEPASISCRSSQSLVHSNRNTYLHWYQQKPGQAPRLLIYKVSNRFSGVPDRFSGSGSGTDFTLKISRVEAEDVGVYYCQQGTQVPYTFGQGTKLEIK
notes: one-arm IgG1
B12: CE115HA000/GLS3000 G89R (antibody, IgG1, name in Kabat numbering, V domains shown)
VH: QVQLVESGGGVVQPGRSLRLSCAASGFTFSNAWMHWVRQAPGKGLEWVAQIKAKSNNYATYYAESVKGRFTISRDDSKNSLYLQMNSLKTEDTAVYYCRYVHYGAYYGVDAWGQGTTVTVSS
VL: DIVMTQSPLSLPVTPGEPASISCRSSQSLVHSNRNTYLHWYQQKPGQAPRLLIYKVSNRFSGVPDRFSGSGSGTDFTLKISRVEAEDVGVYYCRQGTQVPYTFGQGTKLEIK
notes: one-arm IgG1
B13: CE115HA000/GLS3000 G89T (antibody, IgG1, name in Kabat numbering, V domains shown)
VH: QVQLVESGGGVVQPGRSLRLSCAASGFTFSNAWMHWVRQAPGKGLEWVAQIKAKSNNYATYYAESVKGRFTISRDDSKNSLYLQMNSLKTEDTAVYYCRYVHYGAYYGVDAWGQGTTVTVSS
VL: DIVMTQSPLSLPVTPGEPASISCRSSQSLVHSNRNTYLHWYQQKPGQAPRLLIYKVSNRFSGVPDRFSGSGSGTDFTLKISRVEAEDVGVYYCTQGTQVPYTFGQGTKLEIK
notes: one-arm IgG1
B14: CE115HA000/GLS3000 G89V (antibody, IgG1, name in Kabat numbering, V domains shown)
VH: QVQLVESGGGVVQPGRSLRLSCAASGFTFSNAWMHWVRQAPGKGLEWVAQIKAKSNNYATYYAESVKGRFTISRDDSKNSLYLQMNSLKTEDTAVYYCRYVHYGAYYGVDAWGQGTTVTVSS
VL: DIVMTQSPLSLPVTPGEPASISCRSSQSLVHSNRNTYLHWYQQKPGQAPRLLIYKVSNRFSGVPDRFSGSGSGTDFTLKISRVEAEDVGVYYCVQGTQVPYTFGQGTKLEIK
notes: one-arm IgG1
B15: CE115HA000/GLS3000 G89W (antibody, IgG1, name in Kabat numbering, V domains shown)
VH: QVQLVESGGGVVQPGRSLRLSCAASGFTFSNAWMHWVRQAPGKGLEWVAQIKAKSNNYATYYAESVKGRFTISRDDSKNSLYLQMNSLKTEDTAVYYCRYVHYGAYYGVDAWGQGTTVTVSS
VL: DIVMTQSPLSLPVTPGEPASISCRSSQSLVHSNRNTYLHWYQQKPGQAPRLLIYKVSNRFSGVPDRFSGSGSGTDFTLKISRVEAEDVGVYYCWQGTQVPYTFGQGTKLEIK
notes: one-arm IgG1
B16: CE115HA000/GLS3000 G89Y (antibody, IgG1, name in Kabat numbering, V domains shown)
VH: QVQLVESGGGVVQPGRSLRLSCAASGFTFSNAWMHWVRQAPGKGLEWVAQIKAKSNNYATYYAESVKGRFTISRDDSKNSLYLQMNSLKTEDTAVYYCRYVHYGAYYGVDAWGQGTTVTVSS
VL: DIVMTQSPLSLPVTPGEPASISCRSSQSLVHSNRNTYLHWYQQKPGQAPRLLIYKVSNRFSGVPDRFSGSGSGTDFTLKISRVEAEDVGVYYCYQGTQVPYTFGQGTKLEIK
notes: one-arm IgG1
B17: CE115HA000/GLS3000 G91A (antibody, IgG1, name in Kabat numbering, V domains shown)
VH: QVQLVESGGGVVQPGRSLRLSCAASGFTFSNAWMHWVRQAPGKGLEWVAQIKAKSNNYATYYAESVKGRFTISRDDSKNSLYLQMNSLKTEDTAVYYCRYVHYGAYYGVDAWGQGTTVTVSS
VL: DIVMTQSPLSLPVTPGEPASISCRSSQSLVHSNRNTYLHWYQQKPGQAPRLLIYKVSNRFSGVPDRFSGSGSGTDFTLKISRVEAEDVGVYYCGQATQVPYTFGQGTKLEIK
notes: one-arm IgG1
B18: CE115HA000/GLS3000 G91D (antibody, IgG1, name in Kabat numbering, V domains shown)
VH: QVQLVESGGGVVQPGRSLRLSCAASGFTFSNAWMHWVRQAPGKGLEWVAQIKAKSNNYATYYAESVKGRFTISRDDSKNSLYLQMNSLKTEDTAVYYCRYVHYGAYYGVDAWGQGTTVTVSS
VL: DIVMTQSPLSLPVTPGEPASISCRSSQSLVHSNRNTYLHWYQQKPGQAPRLLIYKVSNRFSGVPDRFSGSGSGTDFTLKISRVEAEDVGVYYCGQDTQVPYTFGQGTKLEIK
notes: one-arm IgG1
B19: CE115HA000/GLS3000 G91E (antibody, IgG1, name in Kabat numbering, V domains shown)
VH: QVQLVESGGGVVQPGRSLRLSCAASGFTFSNAWMHWVRQAPGKGLEWVAQIKAKSNNYATYYAESVKGRFTISRDDSKNSLYLQMNSLKTEDTAVYYCRYVHYGAYYGVDAWGQGTTVTVSS
VL: DIVMTQSPLSLPVTPGEPASISCRSSQSLVHSNRNTYLHWYQQKPGQAPRLLIYKVSNRFSGVPDRFSGSGSGTDFTLKISRVEAEDVGVYYCGQETQVPYTFGQGTKLEIK
notes: one-arm IgG1
B20: CE115HA000/GLS3000 G91P (antibody, IgG1, name in Kabat numbering, V domains shown)
VH: QVQLVESGGGVVQPGRSLRLSCAASGFTFSNAWMHWVRQAPGKGLEWVAQIKAKSNNYATYYAESVKGRFTISRDDSKNSLYLQMNSLKTEDTAVYYCRYVHYGAYYGVDAWGQGTTVTVSS
VL: DIVMTQSPLSLPVTPGEPASISCRSSQSLVHSNRNTYLHWYQQKPGQAPRLLIYKVSNRFSGVPDRFSGSGSGTDFTLKISRVEAEDVGVYYCGQPTQVPYTFGQGTKLEIK
notes: one-arm IgG1
B21: CE115HA000/GLS3000 G91T (antibody, IgG1, name in Kabat numbering, V domains shown)
VH: QVQLVESGGGVVQPGRSLRLSCAASGFTFSNAWMHWVRQAPGKGLEWVAQIKAKSNNYATYYAESVKGRFTISRDDSKNSLYLQMNSLKTEDTAVYYCRYVHYGAYYGVDAWGQGTTVTVSS
VL: DIVMTQSPLSLPVTPGEPASISCRSSQSLVHSNRNTYLHWYQQKPGQAPRLLIYKVSNRFSGVPDRFSGSGSGTDFTLKISRVEAEDVGVYYCGQTTQVPYTFGQGTKLEIK
notes: one-arm IgG1

What follows are binders tested against T1, CD3 epsilon homodimer protein (UniProt P07766 23-126) (assay: SPR, antibody over immobilised CD3e homodimer;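 further: SPR at 25 °C with CD3 epsilon homodimer amine-coupled to a CM4 sensor chip and antibody flowed over as analyte in HBS-EP+ running buffer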).
T1 construct: also called CD3 (CD3 epsilon)
T1 sequence (P07766 23-126): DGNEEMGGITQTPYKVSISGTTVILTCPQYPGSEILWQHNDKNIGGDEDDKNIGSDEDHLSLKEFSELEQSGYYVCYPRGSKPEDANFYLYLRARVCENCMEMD
Procedure: An appropriate amount of CD3 epsilon homodimer protein was immobilized onto Sensor chip CM4 (GE Healthcare Japan Corp.) by the amine coupling method. Then, the antibody having an appropriate concentration was injected thereto as an analyte and allowed to interact with the CD3 epsilon homodimer protein on the sensor chip. Then, the sensor chip was regenerated by the injection of 10 mmol/L glycine-HCl (pH 1.5). The assay was conducted at 25 degrees C., and HBS-EP+(GE Healthcare Japan Corp.) was used as a running buffer. […] Each parameter was calculated using Biacore T200 Evaluation Software (GE Healthcare Japan Corp.).
For B1, the “KD ratio to GLS3000” value was 1.96. In the case of B2, the “KD ratio to GLS3000” value is reported as 34.6. With B3 the “KD ratio to GLS3000” value was 3.34. In the case of B4, the “KD ratio to GLS3000” value is reported as 1.44. With B5 the “KD ratio to GLS3000” value was 1.11. In the case of B6, the “KD ratio to GLS3000” value is reported as 1.8. B7 was tested, and the “KD ratio to GLS3000” value was 2.38. In the case of B8, the “KD ratio to GLS3000” value is reported as 1.96. For B9, the “KD ratio to GLS3000” value was 1.2. With B10 the “KD ratio to GLS3000” value was 1.8. In the case of B11, the “KD ratio to GLS3000” value is reported as 2.11. In the case of B12, the “KD ratio to GLS3000” value is reported as 4130. With B13 the “KD ratio to GLS3000” value was 1.1. For B14, the “KD ratio to GLS3000” value was 1.4. For B15, the “KD ratio to GLS3000” value was 2.2. With B16 the “KD ratio to GLS3000” value was 1.12. For B17, the “KD ratio to GLS3000” value was 28.1. B18 was tested, and the “KD ratio to GLS3000” value was 44.8. In the case of B19, the “KD ratio to GLS3000” value is reported as 48.5. In the case of B20, the “KD ratio to GLS3000” value is reported as 23.1. In the case of B21, the “KD ratio to GLS3000” value is reported as 39.9.
